In article PMC10611921, “Assessing the dynamics and macromolecular interactions of the intrinsically disordered protein YY1” (Bioscience Reports, 2023):

Biological target: YY1;FOXP2 FHD (human?;human?, UniProt P25490;O15409 1-414;504-594, |)
Assay: EMSA; FOXP2 FHD 2.5-10 uM added; large complex more intense and slightly shifted; simultaneous binding suggested; Anisotropy: 10 mM HEPES pH 7.5, 100 mM NaCl, 20 C; EMSA: 0.5 uM DNA, 20% (v/v) of binding buffer (10 mM HEPES pH 7.5, 1 mM MgCl2, 100 mM KCl, 10% glycerol, 0.1)
Conditions: protein: recombinant;recombinant; tags: N-terminal His6;His6 removed with thrombin

Sequence of YY1;FOXP2 FHD (P25490 whole entry, chain 1 of 2): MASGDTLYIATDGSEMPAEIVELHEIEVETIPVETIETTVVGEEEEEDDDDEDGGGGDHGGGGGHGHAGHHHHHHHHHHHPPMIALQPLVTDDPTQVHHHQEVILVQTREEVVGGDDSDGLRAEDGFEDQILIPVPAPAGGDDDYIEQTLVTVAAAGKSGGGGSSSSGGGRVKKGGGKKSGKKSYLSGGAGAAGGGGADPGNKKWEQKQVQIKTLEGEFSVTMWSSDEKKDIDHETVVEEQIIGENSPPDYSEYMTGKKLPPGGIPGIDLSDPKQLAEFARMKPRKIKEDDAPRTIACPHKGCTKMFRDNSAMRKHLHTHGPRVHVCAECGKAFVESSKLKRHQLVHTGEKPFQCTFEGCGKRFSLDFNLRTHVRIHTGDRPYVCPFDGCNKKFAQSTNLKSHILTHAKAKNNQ
Sequence of YY1;FOXP2 FHD (O15409 504-594, chain 2 of 2): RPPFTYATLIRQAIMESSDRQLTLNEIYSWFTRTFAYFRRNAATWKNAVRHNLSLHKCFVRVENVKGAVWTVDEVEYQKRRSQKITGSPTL

B1: AAV P5 DNA (dsDNA)
DNA 1: AGGGTCTCCATTTTGAAGCG
DNA 2: CGCTTCAAAATGGAGACCCT
binding result: binds
